Measurements taken from patent publication US20220193204A1 (BAYLOR COLLEGE OF MEDICINE, published 2022).

How the values were obtained:
[1] = biological target: recombinant SARS-CoV-2 spike protein (S) (SARS-CoV-2, UniProt P0DTC2 16-1213)
[2] = biological target: recombinant human vimentin (human, UniProt P08670 2-466, limits assumed); assay: ELISA: increasing concentrations of A2 variant on recombinant human vimentin, bound A2 detected with anti-A2 antibody and a secondary HRP conjugate
recombinant human vimentin, sequence (P08670 2-466 limits assumed): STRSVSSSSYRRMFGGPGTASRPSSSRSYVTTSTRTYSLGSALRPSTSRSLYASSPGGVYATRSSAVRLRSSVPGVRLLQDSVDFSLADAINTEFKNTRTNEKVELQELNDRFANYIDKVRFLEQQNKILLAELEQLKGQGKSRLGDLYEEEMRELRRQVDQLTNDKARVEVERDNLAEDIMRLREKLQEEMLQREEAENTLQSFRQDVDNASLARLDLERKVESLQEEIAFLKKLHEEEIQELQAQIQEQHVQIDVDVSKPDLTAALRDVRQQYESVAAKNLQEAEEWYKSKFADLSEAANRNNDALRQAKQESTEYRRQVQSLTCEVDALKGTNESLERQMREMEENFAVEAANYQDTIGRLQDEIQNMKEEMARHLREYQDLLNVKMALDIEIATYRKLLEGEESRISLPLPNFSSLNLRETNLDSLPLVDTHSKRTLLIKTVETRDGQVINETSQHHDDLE

Binder | binding result [1] | EC50 (read off the curve) [2]
recombinant A2 domain of human von Willebrand factor (WT A2 protein) (other, conjugated to Alexa Fluor 488 in the confocal microscopy experiments only, not shown: histidine tag (vector pQE-9/VWF-A2)) GLLGVSTLGPKRNSMVLDVAFVLEGSDKIGEADFNRSKEFMEEVIQRMDVGQDSIHVTVLQYSYMVTVEYPFSEAQSKGDILQRVREIRYQGGNRTNTGLALRYLSDHSFLVSQGDREQAPNLVYMVTGNPASDEIKRLPGDIQVVPIGVGPNANVQELERIGWPNAPILIQDFETLPREAPDLVLQR | no binding | ~0.04 µM
recombinant A2 (E1567A) mutant of the A2 domain of human von Willebrand factor (other, also called A2 mutant; A2 mutant protein; not shown: Histidine tag from the pQE-9 vector) GLLGVSTLGPKRNSMVLDVAFVLEGSDKIGEADFNRSKEFMEEVIQRMDVGQDSIHVTVLQYSYMVTVEYPFSEAQSKGDILQRVRAIRYQGGNRTNTGLALRYLSDHSFLVSQGDREQAPNLVYMVTGNPASDEIKRLPGDIQVVPIGVGPNANVQELERIGWPNAPILIQDFETLPREAPDLVLQR | – | ~0.07 µM
